Our source for the binding result and EC50 values is patent publication US20210206856A1 (PANDION OPERATIONS, published 2021).

Test [1] addresses T1, mouse MAdCAM expressed on cells (mouse, UniProt Q61826 22-405).
T1 construct: whole, on cells
T1 sequence (looked up): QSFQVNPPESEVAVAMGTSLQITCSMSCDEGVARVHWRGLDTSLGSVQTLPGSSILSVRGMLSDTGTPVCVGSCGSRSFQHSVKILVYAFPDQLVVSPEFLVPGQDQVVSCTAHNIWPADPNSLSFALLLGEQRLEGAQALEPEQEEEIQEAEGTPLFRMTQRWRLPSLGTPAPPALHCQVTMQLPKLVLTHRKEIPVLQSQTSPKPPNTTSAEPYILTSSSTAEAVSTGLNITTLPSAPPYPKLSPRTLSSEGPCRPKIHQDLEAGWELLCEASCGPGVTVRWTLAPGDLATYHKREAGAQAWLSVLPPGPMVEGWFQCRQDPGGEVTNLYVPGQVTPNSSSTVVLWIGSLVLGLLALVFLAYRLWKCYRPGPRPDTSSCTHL
The test can be described thus: cell binding.

The target in test [2] is T2, human MAdCAM expressed on cells (human, UniProt Q13477 19-382).
T2 construct: whole, on cells; also called MADCAM1
T2 sequence (looked up): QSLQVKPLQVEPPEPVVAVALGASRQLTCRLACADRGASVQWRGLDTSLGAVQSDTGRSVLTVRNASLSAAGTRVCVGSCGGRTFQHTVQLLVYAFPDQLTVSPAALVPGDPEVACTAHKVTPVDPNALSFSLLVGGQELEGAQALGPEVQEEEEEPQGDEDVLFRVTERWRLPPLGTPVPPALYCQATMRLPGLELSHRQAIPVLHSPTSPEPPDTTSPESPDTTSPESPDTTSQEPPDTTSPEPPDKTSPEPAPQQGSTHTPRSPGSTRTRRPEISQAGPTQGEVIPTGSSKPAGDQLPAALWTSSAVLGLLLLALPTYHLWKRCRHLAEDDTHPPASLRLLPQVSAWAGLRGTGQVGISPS
Put plainly: cell binding.

The target of test [3] is T3, recombinant mouse MAdCAM-1 (mouse, UniProt Q61826 22-365, limits assumed).
T3 construct: also called mMAdCAM-1; mouse MAdCAM-Fc
T3 sequence (looked up): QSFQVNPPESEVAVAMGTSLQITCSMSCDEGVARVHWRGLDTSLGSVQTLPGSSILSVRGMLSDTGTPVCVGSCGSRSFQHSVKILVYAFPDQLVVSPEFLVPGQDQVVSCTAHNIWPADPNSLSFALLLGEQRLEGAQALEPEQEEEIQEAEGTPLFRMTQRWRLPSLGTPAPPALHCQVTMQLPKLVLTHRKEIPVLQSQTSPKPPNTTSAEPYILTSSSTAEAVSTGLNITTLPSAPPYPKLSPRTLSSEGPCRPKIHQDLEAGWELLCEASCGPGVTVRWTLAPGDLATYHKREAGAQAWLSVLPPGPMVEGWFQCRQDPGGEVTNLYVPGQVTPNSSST
Put plainly: Octet.

Test [4] addresses T4, CD25 (Homo sapiens (Human), UniProt P01589 22-240).
T4 construct: also called IL-2R alpha chain
T4 sequence: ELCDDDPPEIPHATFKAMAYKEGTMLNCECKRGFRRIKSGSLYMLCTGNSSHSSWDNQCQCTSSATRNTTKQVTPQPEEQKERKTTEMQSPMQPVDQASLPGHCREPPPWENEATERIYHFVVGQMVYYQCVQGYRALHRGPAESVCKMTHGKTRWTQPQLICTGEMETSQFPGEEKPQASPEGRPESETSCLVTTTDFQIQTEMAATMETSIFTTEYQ
Put plainly: ELISA, CD25 coated plate.

B1: MAdCAM Antibody Table 1 Clone 23 (scFv)
scFv: EVQLLESGGGLVQPGGSLRLSCAASGFTFSSYAMHWVRQAPGKGLEWVSGISGSGGSAYYADSVKGRFTISRDNSKNTLYLQMNSLRAEDTAVYYCATSQAPVDYYYYGMDVWGQGTTVTVSSGGGGSGGGGSGGGGSGGGGSDIQMTQSPSSLSASVGDRVTITCRASQSISSWLAWYQQKPGKAPKLLIYAASNLQRGVPSRFSGSGSGTDFTLTISSLQPEDFATYYCQQSYSIPITFGQGTKVEIK
On to B1, for which the values for the binding result in test [1], in test [2] and in test [3] were “no binding”, “binds” and “no binding”, respectively.

B2: MAdCAM Antibody Table 1 Clone 6 (scFv)
scFv: EVQLLESGGGLVQPGGSLRLSCAASGFTFNNYAFHWVRQAPGKGLEWVSRINSYGTSTTYADSVKGRFTISRDNSKNTLYLQMNSLRAEDTAVYYCAREGPVAGYWYFDLWGQGTLVTVSSGGGGSGGGGSGGGGSGGGGSDIQMTQSPSSLSASVGDRVTITCRASQIIGTNLAWYQQKPGKAPKLLIYGASSLQSGVPSRFSGSGSGTDFTLTISSLQPEDFATYYCQQSYRLPFTFGQGTKVEIK
notes: also called Antibody Clone 6
B2: the binding result in test [1] is “no binding”; in test [2], “binds”; in test [3], “no binding”.

B3: MAdCAM Antibody Table 1 Clone 20 (scFv)
scFv: EVQLLESGGGLVQPGGSLRLSCAASGFTFDDYAMHWVRQAPGKGLEWVSYIDTSSSHLYYADSVKGRFTISRDNSKNTLYLQMNSLRAEDTAVYYCARDEAAAGYYGMDVWGQGTTVTVSSGGGGSGGGGSGGGGSGGGGSDIQMTQSPSSLSASVGDRVTITCQAGQDISNYLNWYQQKPGKAPKLLIYDASNLETGVPSRFSGSGSGTDFTLTISSLQPEDFATYYCQQTYSTPITFGQGTKLEIK
As to B3, the binding result in test [1] is recorded as “no binding”; in test [2] it was “binds”; in test [3], “no binding”.

B4: MAdCAM Antibody Table 1 Clone 19 (scFv)
scFv: EVQLLESGGGLVQPGGSLRLSCAASGFTFDDYAMHWVRQAPGKGLEWVSGISWNSGSIGYADSVKGRFTISRDNSKNTLYLQMNSLRAEDTAVYYCAKDIVAAGHYYYGMDVWGQGTTVTVSSGGGGSGGGGSGGGGSGGGGSDIQMTQSPSSLSASVGDRVTITCQASQDISNYLNWYQQKPGKAPKLLIYDASNLETGVPSRFSGSGSGTDFTLTISSLQPEDFATYYCQQSYSTPLTFGGGTKVEIK
Turning to B4, the binding result is listed as “no binding” in test [1], “binds” in test [2] and “no binding” in test [3].

B5: human IL-2 mutein fused N-terminally to human IgG1 Fc domain (SEQ ID NO: 57) (Fc fusion)
chain: APTSSSTKKTQLQLEHLLLDLQMILNGINNYKNPKLTRMLTFKFYMPKKATELKHLQCLEEELKPLEEALNLAPSKNFHLRPRDLISDINVIVLELKGSETTFMCEYADETATIVEFLNRWITFSQSIISTLTGGGGSGGGGSGGGGSGGGGSDKTHTCPPCPAPEAAGAPSVFLFPPKPKDTLMISRTPEVTCVVVDVSHEDPEVKFNWYVDGVEVHNAKTKPREEQYNSTYRVVSVLTVLHQDWLNGKEYKCKVSNKALPAPIEKTISKAKGQPREPQVYTLPPSREEMTKNQVSLTCLVKGFYPSDIAVEWESNGQPENNYKTTPPVLDSDGSFFLYSKLTVDKSRWQQGNVFSCSVMHEALHNHYTQKSLSLSPG
notes: also called IL-2 N88D V69A, Q74P-G4Sx4-Fc
Turning to B5, in test [4], the EC50 is less than 1 nM.

B6: IL-2 mutein SEQ ID NO: 53 (Fc fusion)
chain: APTSSSTKKTQLQLEHLLLDLQMILNGINNYKNPKLTRMLTFKFYMPKKATEIKHLQCLEEELKPLEEALNLAPSKNFHLRPRDLISDINVIVLELKGSETTFMCEYADETATIVEFLNRWITFSQSIISTLTGGGGSGGGGSGGGGSGGGGSDKTHTCPPCPAPEAAGAPSVFLFPPKPKDTLMISRTPEVTCVVVDVSHEDPEVKFNWYVDGVEVHNAKTKPREEQYNSTYRVVSVLTVLHQDWLNGKEYKCKVSNKALPAPIEKTISKAKGQPREPQVYTLPPSREEMTKNQVSLTCLVKGFYPSDIAVEWESNGQPENNYKTTPPVLDSDGSFFLYSKLTVDKSRWQQGNVFSCSVMHEALHNHYTQKSLSLSPG
notes: also called IL-2 L53I N88D V69A, Q74P, C125S-G4Sx4-Fc
B6: in test [4], the EC50 was less than 1 nM.

B7: IL-2 mutein SEQ ID NO: 56 (Fc fusion)
chain: APTSSSTKKTQLQLEHLLLDLQMILNGINNYKNPKLTRMLTFKFYMPKKATELKHLQCLEEELKPLEEALNLAPSKNFHLRPRDLISDINVIVLELKGSETTFMCEYADETATIVEFINRWITFSQSIISTLTGGGGSGGGGSGGGGSGGGGSDKTHTCPPCPAPEAAGAPSVFLFPPKPKDTLMISRTPEVTCVVVDVSHEDPEVKFNWYVDGVEVHNAKTKPREEQYNSTYRVVSVLTVLHQDWLNGKEYKCKVSNKALPAPIEKTISKAKGQPREPQVYTLPPSREEMTKNQVSLTCLVKGFYPSDIAVEWESNGQPENNYKTTPPVLDSDGSFFLYSKLTVDKSRWQQGNVFSCSVMHEALHNHYTQKSLSLSPG
notes: also called IL-2 L118I N88D V69A, Q74P, C125S-G4Sx4-Fc
Regarding B7, in test [4], the EC50 was less than 1 nM.

B8: IL-2 mutein SEQ ID NO: 54 (Fc fusion)
chain: APTSSSTKKTQLQLEHLLLDLQMILNGINNYKNPKLTRMLTFKFYMPKKATELKHIQCLEEELKPLEEALNLAPSKNFHLRPRDLISDINVIVLELKGSETTFMCEYADETATIVEFLNRWITFSQSIISTLTGGGGSGGGGSGGGGSGGGGSDKTHTCPPCPAPEAAGAPSVFLFPPKPKDTLMISRTPEVTCVVVDVSHEDPEVKFNWYVDGVEVHNAKTKPREEQYNSTYRVVSVLTVLHQDWLNGKEYKCKVSNKALPAPIEKTISKAKGQPREPQVYTLPPSREEMTKNQVSLTCLVKGFYPSDIAVEWESNGQPENNYKTTPPVLDSDGSFFLYSKLTVDKSRWQQGNVFSCSVMHEALHNHYTQKSLSLSPG
notes: also called IL-2 L56I N88D V69A, Q74P, C125S-G4Sx4-Fc
Molecule B8 showed an EC50 in test [4] of less than 1 nM.

B9: IL-2 mutein SEQ ID NO: 55 (Fc fusion)
chain: APTSSSTKKTQLQLEHLLLDLQMILNGINNYKNPKLTRMLTFKFYMPKKATELKHLQCLEEELKPLEEALNLAPSKNFHIRPRDLISDINVIVLELKGSETTFMCEYADETATIVEFLNRWITFSQSIISTLTGGGGSGGGGSGGGGSGGGGSDKTHTCPPCPAPEAAGAPSVFLFPPKPKDTLMISRTPEVTCVVVDVSHEDPEVKFNWYVDGVEVHNAKTKPREEQYNSTYRVVSVLTVLHQDWLNGKEYKCKVSNKALPAPIEKTISKAKGQPREPQVYTLPPSREEMTKNQVSLTCLVKGFYPSDIAVEWESNGQPENNYKTTPPVLDSDGSFFLYSKLTVDKSRWQQGNVFSCSVMHEALHNHYTQKSLSLSPG
notes: also called IL-2 L80I N88D V69A, C125S Q74P-G4Sx4-Fc
In test [4], B9 gave an EC50 of less than 1 nM.
